Source: the supplement of paper PMC10567573

B1: TMEM175 (parent)
chain: SCTIIFLASIFQLAMWTTALLHQA

Variants of: B1
Experiment: protein stability index of a GFP-peptide fusion (GPS, HEK-293T) (PSI 1-6); higher = more stable
Conditions: c terminus: a fixed tail appended
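Note: lentivirally expressed fusions sorted by FACS into six bins by GFP to DsRed ratio, PSI derived from sequencing read proportions per bin multiplied by bin number.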

Row | Variant | protein stability index
1 | SCTIIFLASIFLLAMWTTALLHQA [Q12L] | 3.15
2 | SCTIIFLASIFYLAMWTTALLHQA [Q12Y] | 1.89
3 | SCTIIFLASIFALAMWTTALLHQA [Q12A] | 3.29
4 | SCTIIFLASIFILAMWTTALLHQA [Q12I] | 3.51
5 | SCTIIFLASIFTLAMWTTALLHQA [Q12T] | 3.43
6 | SCTIIFLASIFCLAMWTTALLHQA [Q12C] | 3.71
7 | SCTIIFLASIFSLAMWTTALLHQA [Q12S] | 2.75
8 | SCTIIFLASIFVLAMWTTALLHQA [Q12V] | 2.25
9 | SCTIIFLASIFDLAMWTTALLHQA [Q12D] | 3.29
10 | SCTIIFLASIFHLAMWTTALLHQA [Q12H] | 3.19
11 | SCTIIFLASIFELAMWTTALLHQA [Q12E] | 3.39
12 | SCTIIFLASIFGLAMWTTALLHQA [Q12G] | 2.9
13 | SCTIIFLASIFNLAMWTTALLHQA [Q12N] | 3.72
14 | SCTIIFLASIFFLAMWTTALLHQA [Q12F] | 2.61
15 | SCTIIFLASIFMLAMWTTALLHQA [Q12M] | 2.6
16 | SCTIIFLASIFPLAMWTTALLHQA [Q12P] | 2.3
17 | SCTIIFLAWIFQLAMWTTALLHQA [S9W] | 4.47
18 | SCTIIFLATIFQLAMWTTALLHQA [S9T] | 2.5
19 | SCTIIFLAMIFQLAMWTTALLHQA [S9M] | 2.49
20 | SCTIIFLANIFQLAMWTTALLHQA [S9N] | 3.06
21 | SCTIIFLAAIFQLAMWTTALLHQA [S9A] | 3.6
22 | SCTIIFLAKIFQLAMWTTALLHQA [S9K] | 3.56
23 | SCTIIFLAEIFQLAMWTTALLHQA [S9E] | 4.07
24 | SCTIIFLAPIFQLAMWTTALLHQA [S9P] | 2.31

Row | Variant | protein stability index
25 | SCTIIFLAYIFQLAMWTTALLHQA [S9Y] | 2.66
26 | SCTIIFLAGIFQLAMWTTALLHQA [S9G] | 2.5
27 | SCTIIFLALIFQLAMWTTALLHQA [S9L] | 3.52
28 | SCTIIFLAQIFQLAMWTTALLHQA [S9Q] | 4.14
29 | SCTIIFLARIFQLAMWTTALLHQA [S9R] | 2.78
30 | SCTIIFLASIFQLFMWTTALLHQA [A14F] | 2.76
31 | SCTIIFLASIFQLHMWTTALLHQA [A14H] | 3
32 | SCTIIFLASIFQLLMWTTALLHQA [A14L] | 4.29
33 | SCTIIFLASIFQLGMWTTALLHQA [A14G] | 3.94
34 | SCTIIFLASIFQLPMWTTALLHQA [A14P] | 2.29
35 | SCTIIFLASIFQLCMWTTALLHQA [A14C] | 3.07
36 | SCTIIFLASIFQLDMWTTALLHQA [A14D] | 4
37 | SCTIIFLASIFQLIMWTTALLHQA [A14I] | 3.4
38 | SCTIIFLASIFQLMMWTTALLHQA [A14M] | 3.19
39 | SCTIIFLASIFQLEMWTTALLHQA [A14E] | 1.9
40 | SCTIIFLASIFQLNMWTTALLHQA [A14N] | 2.62
41 | SCTIIFLASIFQLKMWTTALLHQA [A14K] | 3.08
42 | SCTIIFLASIFQTAMWTTALLHQA [L13T] | 2.49
43 | SCTIIFLASIFQEAMWTTALLHQA [L13E] | 2.24
44 | SCTIIFLASIFQMAMWTTALLHQA [L13M] | 2.97
45 | SCTIIFLASIFQVAMWTTALLHQA [L13V] | 3.31
46 | SCTIIFLASIFQYAMWTTALLHQA [L13Y] | 2.81
47 | SCTIIFLASIFQPAMWTTALLHQA [L13P] | 2.24
48 | SCTIIFLASIFQSAMWTTALLHQA [L13S] | 3.46

Row | Variant | protein stability index
49 | SCTIIFLASIFQCAMWTTALLHQA [L13C] | 2.76
50 | SCTIIFLASIFQNAMWTTALLHQA [L13N] | 3.15
51 | SCTIIFLASIFQRAMWTTALLHQA [L13R] | 1.63
52 | SCTIIFLASIFQFAMWTTALLHQA [L13F] | 3.07
53 | SCTIIFLASIFQAAMWTTALLHQA [L13A] | 2.85
54 | SCTIIFLASIFQDAMWTTALLHQA [L13D] | 2.59
55 | SCTIIFLASIFQHAMWTTALLHQA [L13H] | 3.13
56 | SCTIIFLASIFQQAMWTTALLHQA [L13Q] | 3.08
57 | SCTIIFLASIFQIAMWTTALLHQA [L13I] | 2.5
58 | SCTIIFLASIVQLAMWTTALLHQA [F11V] | 2.09
59 | SCTIIFLASIKQLAMWTTALLHQA [F11K] | 3.11
60 | SCTIIFLASITQLAMWTTALLHQA [F11T] | 3.38
61 | SCTIIFLASIAQLAMWTTALLHQA [F11A] | 3.92
62 | SCTIIFLASILQLAMWTTALLHQA [F11L] | 2.74
63 | SCTIIFLASISQLAMWTTALLHQA [F11S] | 2.19
64 | SCTIIFLASIIQLAMWTTALLHQA [F11I] | 2.56
65 | SCTIIFLASIPQLAMWTTALLHQA [F11P] | 2.96
66 | SCTIIFLASICQLAMWTTALLHQA [F11C] | 2.29
67 | SCTIIFLASIMQLAMWTTALLHQA [F11M] | 1.87
68 | SCTIIFLASIYQLAMWTTALLHQA [F11Y] | 1.79
69 | SCTIIFLASIRQLAMWTTALLHQA [F11R] | 5.97
70 | SCTIIFLASIDQLAMWTTALLHQA [F11D] | 2.62
71 | SCTIIFLASIWQLAMWTTALLHQA [F11W] | 2.6
72 | SCTIIFLASINQLAMWTTALLHQA [F11N] | 2.97

Row | Variant | protein stability index
73 | SCTIIFLASIQQLAMWTTALLHQA [F11Q] | 3.1
74 | SCTIIFLASIEQLAMWTTALLHQA [F11E] | 3.04
75 | SCTIIFLVSIFQLAMWTTALLHQA [A8V] | 2.62
76 | SCTIIFLSSIFQLAMWTTALLHQA [A8S] | 3
77 | SCTIIFLTSIFQLAMWTTALLHQA [A8T] | 4.12
78 | SCTIIFLYSIFQLAMWTTALLHQA [A8Y] | 3.74
79 | SCTIIFLASNFQLAMWTTALLHQA [I10N] | 2.59
80 | SCTIIFLASSFQLAMWTTALLHQA [I10S] | 2.97
81 | SCTIIFLASYFQLAMWTTALLHQA [I10Y] | 3.52
82 | SCTIIFLASQFQLAMWTTALLHQA [I10Q] | 2.91
83 | SCTIIFLASGFQLAMWTTALLHQA [I10G] | 2.65
84 | SCTIIFLASAFQLAMWTTALLHQA [I10A] | 3.45
85 | SCTIIFLASTFQLAMWTTALLHQA [I10T] | 3.72
86 | SCTIIFLASVFQLAMWTTALLHQA [I10V] | 3.47
87 | SCTIIFLASWFQLAMWTTALLHQA [I10W] | 2.29
88 | SCTIIFLASHFQLAMWTTALLHQA [I10H] | 3.64
89 | SCTIIFLASKFQLAMWTTALLHQA [I10K] | 3.74
90 | SCTIIFLASDFQLAMWTTALLHQA [I10D] | 1.94
91 | SCTIIFLASCFQLAMWTTALLHQA [I10C] | 1.64
92 | SCTIIFLASPFQLAMWTTALLHQA [I10P] | 2.65
93 | SCTIIFLASRFQLAMWTTALLHQA [I10R] | 2.81
94 | SCTIIFLASMFQLAMWTTALLHQA [I10M] | 3.48
